Experimental data reported in IntAct's records for PubMed 21946559.

B1: Netrin-G2 (Homo sapiens), Q96CW9 (parent)
chain: MLHLLALFLHCLPLASGDYDICKSWVTTDEGPTWEFYACQPKVMRLKDYVKVKVEPSGITCGDPPERFCSHENPYLCSNECDASNPDLAHPPRLMFDKEEEGLATYWQSITWSRYPSPLEANITLSWNKTVELTDDVVMTFEYGRPTVMVLEKSLDNGRTWQPYQFYAEDCMEAFGMSARRARDMSSSSAHRVLCTEEYSRWAGSKKEKHVRFEVRDRFAIFAGPDLRNMDNLYTRLESAKGLKEFFTLTDLRMRLLRPALGGTYVQRENLYKYFYAISNIEVIGRCKCNLHANLCSMREGSLQCECEHNTTGPDCGKCKKNFRTRSWRAGSYLPLPHGSPNACATAGSFGNCECYGHSNRCSYIDFLNVVTCVSCKHNTRGQHCQHCRLGYYRNGSAELDDENVCIECNCNQIGSVHDRCNETGFCECREGAAGPKCDDCLPTHYWRQGCYPNVCDDDQLLCQNGGTCLQNQRCACPRGYTGVRCEQPRCDPADDDGGLDCDRAPGAAPRPATLLGCLLLLGLAARLGR
partner: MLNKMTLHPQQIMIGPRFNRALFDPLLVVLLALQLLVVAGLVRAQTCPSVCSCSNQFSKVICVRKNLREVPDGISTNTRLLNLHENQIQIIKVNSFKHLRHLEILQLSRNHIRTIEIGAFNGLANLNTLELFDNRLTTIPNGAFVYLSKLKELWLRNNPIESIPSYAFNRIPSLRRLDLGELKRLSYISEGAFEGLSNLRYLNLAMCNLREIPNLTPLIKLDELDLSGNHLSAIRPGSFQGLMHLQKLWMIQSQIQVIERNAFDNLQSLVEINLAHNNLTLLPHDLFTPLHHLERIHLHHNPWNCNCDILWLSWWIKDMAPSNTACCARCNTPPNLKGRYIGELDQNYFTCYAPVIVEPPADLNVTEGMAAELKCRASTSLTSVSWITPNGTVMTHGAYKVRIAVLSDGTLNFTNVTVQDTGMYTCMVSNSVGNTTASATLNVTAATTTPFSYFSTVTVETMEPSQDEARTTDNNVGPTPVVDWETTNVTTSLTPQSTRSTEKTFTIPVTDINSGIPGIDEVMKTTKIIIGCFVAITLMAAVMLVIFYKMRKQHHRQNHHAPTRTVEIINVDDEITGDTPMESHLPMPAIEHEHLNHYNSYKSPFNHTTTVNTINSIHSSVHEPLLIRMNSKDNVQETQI
B2: Netrin-G1 (Homo sapiens), Q9Y2I2 (parent)
chain: MYLSRFLSIHALWVTVSSVMQPYPLVWGHYDLCKTQIYTEEGKVWDYMACQPESTDMTKYLKVKLDPPDITCGDPPETFCAMGNPYMCNNECDASTPELAHPPELMFDFEGRHPSTFWQSATWKEYPKPLQVNITLSWSKTIELTDNIVITFESGRPDQMILEKSLDYGRTWQPYQYYATDCLDAFHMDPKSVKDLSQHTVLEIICTEEYSTGYTTNSKIIHFEIKDRFAFFAGPRLRNMASLYGQLDTTKKLRDFFTVTDLRIRLLRPAVGEIFVDELHLARYFYAISDIKVRGRCKCNLHATVCVYDNSKLTCECEHNTTGPDCGKCKKNYQGRPWSPGSYLPIPKGTANTCIPSISSIGNCECFGHSNRCSYIDLLNTVICVSCKHNTRGQHCELCRLGYFRNASAQLDDENVCIECYCNPLGSIHDRCNGSGFCECKTGTTGPKCDECLPGNSWHYGCQPNVCDNELLHCQNGGTCHNNVRCLCPAAYTGILCEKLRCEEAGSCGSDSGQGAPPHGSPALLLLTTLLGTASPLVF
partner: B1 partner
B3: Leucine-rich repeat-containing protein 4C (Homo sapiens), Q9HCJ2 (parent)
chain: B1 partner
partner: B2 chain
B4: Netrin-G2 (Homo sapiens), Q96CW9 (parent)
chain: B1 chain
partner: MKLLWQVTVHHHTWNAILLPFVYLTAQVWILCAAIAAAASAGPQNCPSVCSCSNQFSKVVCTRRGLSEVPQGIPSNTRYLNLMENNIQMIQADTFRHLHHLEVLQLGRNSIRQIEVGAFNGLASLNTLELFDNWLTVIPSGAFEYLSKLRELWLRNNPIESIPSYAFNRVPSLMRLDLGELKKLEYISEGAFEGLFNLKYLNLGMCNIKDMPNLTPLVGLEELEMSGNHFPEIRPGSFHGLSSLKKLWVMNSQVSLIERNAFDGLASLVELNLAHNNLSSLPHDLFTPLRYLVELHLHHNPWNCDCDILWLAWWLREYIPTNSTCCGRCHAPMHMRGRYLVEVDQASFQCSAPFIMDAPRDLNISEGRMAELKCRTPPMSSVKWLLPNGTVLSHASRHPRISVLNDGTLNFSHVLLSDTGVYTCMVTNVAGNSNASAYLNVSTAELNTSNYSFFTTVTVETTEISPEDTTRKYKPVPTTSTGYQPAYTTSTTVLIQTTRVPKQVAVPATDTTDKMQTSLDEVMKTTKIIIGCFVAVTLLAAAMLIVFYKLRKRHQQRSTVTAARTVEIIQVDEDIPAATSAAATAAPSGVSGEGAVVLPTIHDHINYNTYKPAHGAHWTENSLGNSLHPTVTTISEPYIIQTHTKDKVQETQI

Variants of: B1
Conditions: with lrc4c_human LRRC4C, Q9HCJ2

Variant	effect of a mutation on the interaction
MLHLLALFLHCLPLASGDYDICKSWVTTDEGPTWEFYACQPKVMRLKDYVKVKVEPSGITCGDPPERFCSHENAYLCSNECDASNPDLAHPPRLMFDKEEEGLATYWQSITWSRYPSPLEANITLSWNKTVELTDDVVMTFEYGRPTVMVLEKSLDNGRTWQPYQFYAEDCMEAFGMSARRARDMSSSSAHRVLCTEEYSRWAGSKKEKHVRFEVRDRFAIFAGPDLRNMDNLYTRLESAKGLKEFFTLTDLRMRLLRPALGGTYVQRENLYKYFYAISNIEVIGRCKCNLHANLCSMREGSLQCECEHNTTGPDCGKCKKNFRTRSWRAGSYLPLPHGSPNACATAGSFGNCECYGHSNRCSYIDFLNVVTCVSCKHNTRGQHCQHCRLGYYRNGSAELDDENVCIECNCNQIGSVHDRCNETGFCECREGAAGPKCDDCLPTHYWRQGCYPNVCDDDQLLCQNGGTCLQNQRCACPRGYTGVRCEQPRCDPADDDGGLDCDRAPGAAPRPATLLGCLLLLGLAARLGR [P74A]	disrupting interaction

Variants of: B2
Conditions: with lrc4c_human LRRC4C, Q9HCJ2

Variant	effect of a mutation on the interaction
MYLSRFLSIHALWVTVSSVMQPYPLVWGHYDLCKTQIYTEEGKVWDYMACQPESTDMTKYLKVKLDPPDITCGDPPETFCAMGNAYMCNNECDASTPELAHPPELMFDFEGRHPSTFWQSATWKEYPKPLQVNITLSWSKTIELTDNIVITFESGRPDQMILEKSLDYGRTWQPYQYYATDCLDAFHMDPKSVKDLSQHTVLEIICTEEYSTGYTTNSKIIHFEIKDRFAFFAGPRLRNMASLYGQLDTTKKLRDFFTVTDLRIRLLRPAVGEIFVDELHLARYFYAISDIKVRGRCKCNLHATVCVYDNSKLTCECEHNTTGPDCGKCKKNYQGRPWSPGSYLPIPKGTANTCIPSISSIGNCECFGHSNRCSYIDLLNTVICVSCKHNTRGQHCELCRLGYFRNASAQLDDENVCIECYCNPLGSIHDRCNGSGFCECKTGTTGPKCDECLPGNSWHYGCQPNVCDNELLHCQNGGTCHNNVRCLCPAAYTGILCEKLRCEEAGSCGSDSGQGAPPHGSPALLLLTTLLGTASPLVF [P85A]	disrupting interaction
MYLSRFLSIHALWVTVSSVMQPYPLVWGHYDLCKTQIYTEEGKVWDYMACQPESTDMTKYLKVKLDPPDITCGDPPETFCAMGNPTMCNNECDASTPELAHPPELMFDFEGRHPSTFWQSATWKEYPKPLQVNITLSWSKTIELTDNIVITFESGRPDQMILEKSLDYGRTWQPYQYYATDCLDAFHMDPKSVKDLSQHTVLEIICTEEYSTGYTTNSKIIHFEIKDRFAFFAGPRLRNMASLYGQLDTTKKLRDFFTVTDLRIRLLRPAVGEIFVDELHLARYFYAISDIKVRGRCKCNLHATVCVYDNSKLTCECEHNTTGPDCGKCKKNYQGRPWSPGSYLPIPKGTANTCIPSISSIGNCECFGHSNRCSYIDLLNTVICVSCKHNTRGQHCELCRLGYFRNASAQLDDENVCIECYCNPLGSIHDRCNGSGFCECKTGTTGPKCDECLPGNSWHYGCQPNVCDNELLHCQNGGTCHNNVRCLCPAAYTGILCEKLRCEEAGSCGSDSGQGAPPHGSPALLLLTTLLGTASPLVF [Y86T]	disrupting interaction

Variants of: B3
Conditions: with ntng1_human NTNG1, Q9Y2I2

Variant	effect of a mutation on the interaction
A205T	disrupting interaction

Variants of: B4
Conditions: with lrrc4_human LRRC4, Q9HBW1

Variant	effect of a mutation on the interaction
MLHLLALFLHCLPLASGDYDICKSWVTTDEGPTWEFYACQPKVMRLKDYVKVKVEPSGITCGDPPERFCSHENPTLCSNECDASNPDLAHPPRLMFDKEEEGLATYWQSITWSRYPSPLEANITLSWNKTVELTDDVVMTFEYGRPTVMVLEKSLDNGRTWQPYQFYAEDCMEAFGMSARRARDMSSSSAHRVLCTEEYSRWAGSKKEKHVRFEVRDRFAIFAGPDLRNMDNLYTRLESAKGLKEFFTLTDLRMRLLRPALGGTYVQRENLYKYFYAISNIEVIGRCKCNLHANLCSMREGSLQCECEHNTTGPDCGKCKKNFRTRSWRAGSYLPLPHGSPNACATAGSFGNCECYGHSNRCSYIDFLNVVTCVSCKHNTRGQHCQHCRLGYYRNGSAELDDENVCIECNCNQIGSVHDRCNETGFCECREGAAGPKCDDCLPTHYWRQGCYPNVCDDDQLLCQNGGTCLQNQRCACPRGYTGVRCEQPRCDPADDDGGLDCDRAPGAAPRPATLLGCLLLLGLAARLGR [Y75T]	disrupting interaction
MLHLLALFLHCLPLASGDYDICKSWVTTDEGPTWEFYACQPKVMRLKDYVKVKVEPSGITCGDPPERFCSHENAYLCSNECDASNPDLAHPPRLMFDKEEEGLATYWQSITWSRYPSPLEANITLSWNKTVELTDDVVMTFEYGRPTVMVLEKSLDNGRTWQPYQFYAEDCMEAFGMSARRARDMSSSSAHRVLCTEEYSRWAGSKKEKHVRFEVRDRFAIFAGPDLRNMDNLYTRLESAKGLKEFFTLTDLRMRLLRPALGGTYVQRENLYKYFYAISNIEVIGRCKCNLHANLCSMREGSLQCECEHNTTGPDCGKCKKNFRTRSWRAGSYLPLPHGSPNACATAGSFGNCECYGHSNRCSYIDFLNVVTCVSCKHNTRGQHCQHCRLGYYRNGSAELDDENVCIECNCNQIGSVHDRCNETGFCECREGAAGPKCDDCLPTHYWRQGCYPNVCDDDQLLCQNGGTCLQNQRCACPRGYTGVRCEQPRCDPADDDGGLDCDRAPGAAPRPATLLGCLLLLGLAARLGR [P74A]	disrupting interaction
